Assay results taken from patent CN115028713A (JIANGSU DONGKANG BIOMEDICAL TECH CO LTD, dated 2022).

Target: T1, SARS-COV2-N-B1617 (N protein of SARS-CoV-2 variant B1617) (SARS-CoV-2 variant B1617)
T1 construct: also called 冠状病毒SARS-COV2变异株B1617

B1: 单克隆抗体OP2 (anti-SARS-CoV-2 N protein monoclonal antibody OP2) (antibody, V domains shown)
VH: DVQLVESGGGLVQPGGSRKLSCAASGSTFSNFGMHWVRQAPEKGLEWVAYISSASSIIYYADTVKGRFTISRDNPKNTLFLQMTSLRSEDTAMYYCARSAMDYWGQGTSVTVSS
VL: DIVLTQSPASLAVSLGQRATISCKASQSVNYSGDSYMNWFQQKPGQPPKLLIYAASNLESGIPARFSGSGSGTDFTLNIHPVEEEDAATYYCQQSEEQPYTFGGGTKLEIK
notes: also called 抗N蛋白的抗体
EC50: 0.0166 µg/mL
